For assay [1], the target named is mouse PD-L1 in wild-type parental MC38 cells (mouse (endogenous in MC38), UniProt Q9EP73 19-290). Briefly: flow cytometry on cells. A general note: In flow cytometry, cells or beads pass a laser one at a time.
Assay [2] has as its target sPD-1 V1 Fc (human) (UniProt Q15116). The assay can be described thus: SPR. Background: In SPR one partner is held on a chip, and binding of the other changes the refractive index at the surface.

Chain of mouse PD-L1 in wild-type parental MC38 cells (Q9EP73 19-290): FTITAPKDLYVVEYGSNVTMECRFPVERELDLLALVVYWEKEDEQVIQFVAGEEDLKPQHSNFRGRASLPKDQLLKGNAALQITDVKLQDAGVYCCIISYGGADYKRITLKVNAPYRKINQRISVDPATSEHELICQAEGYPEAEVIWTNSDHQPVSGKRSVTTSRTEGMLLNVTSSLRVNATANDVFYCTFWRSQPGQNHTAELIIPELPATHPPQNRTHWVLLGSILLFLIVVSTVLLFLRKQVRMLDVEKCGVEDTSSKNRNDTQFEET

B1: sPD-1 V2 Fc (Fc fusion)
chain: LDSPDRPWNPPTFSPALLVVTEGDNATFTCSFSNTSEGFVLNWYRMSPSNQTDKLAAFPEDRGQLGQDCRFRVTQLPNGRDFHMSVVRARRNDSGTYLCSAIVLAPKIQIKESLRVELRVTERRAEVPTAHPSPSPRPAGQFQTLV
B1: the “fold increase in binding signal over wild-type sPD-1” value in assay [1] is about 4 fold.

B2: human PD-L2 (#10292-H08H, SinoBiological) (ligand)
chain: LFTVTVPKELYIIEHGSNVTLECNFDTGSHVNLGAITASLQKVENDTSPHRERATLLEEQLPLGKASFHIPQVQVRDEGQYQCIIIYGVAWDYKYLTLKVKASYRKINTHILKVPETDEVELTCQATGYPLAEVSWPNVSVPANTSHSRTPEGLYQVTSVLRLKPPPGRNFSCVFWNTHVRELTLASIDLQSQMEPRTHPT
The molecule B2 yielded a fold improvement in binding affinity over wild type sPD-1 in assay [2] of 200 fold.
